Data on 5 substances can be found in PMC1356529.

In data set [1] the target is NCp9 (HIV-1) (UniProt P12493). As to the kind of experiment: Trp fluorescence quenching titration.
Data set [2] concerns the target NCp7 (HIV-1) (UniProt P12493). The experiment in a line: Trp fluorescence quenching titration.
The target in data set [3] is NCp9 (HIV-1) (UniProt P12493). As to the kind of experiment: single-molecule DNA stretching.
For data set [4], the system named is NCp15 (HIV-1). The experiment in a line: single-molecule DNA stretching.
Data set [5] has as its target NCp7 (HIV-1) (UniProt P12493). The experiment in a line: single-molecule DNA stretching.
In data set [6] the test system is NCp15 (HIV-1). The experiment in a line: Trp fluorescence quenching titration.
Data set [7] concerns the target NCp9 (HIV-1) (UniProt P12493). As to the kind of experiment: ethenoA fluorescence enhancement titration. Particulars: 1,N6-ethenoadenosine homopolymer (RNA).
Data set [8] has as its system NCp15 (HIV-1). As to the kind of experiment: ethenoA fluorescence enhancement titration. Particulars: 1,N6-ethenoadenosine homopolymer (RNA).
For data set [9], the target named is NCp7 (HIV-1) (UniProt P12493). As to the kind of experiment: ethenoA fluorescence enhancement titration. Particulars: 1,N6-ethenoadenosine homopolymer (RNA).

With 3'LTR/U5 single strand, the Ka in data set [1] stood at 6.2e+07 M⁻¹; in data set [2], 4.3e+07 M⁻¹.
The like results for 5'LTR/U3 single strand were, in that order, 3.9e+08 M⁻¹ and 2.2e+08 M⁻¹.
Take lambda-DNA: the Ka came out at 1.4e+08 M⁻¹ in data set [3], 1.04e+08 M⁻¹ in [4] and 1.22e+08 M⁻¹ in data set [5].
For the substance poly(dT), the values for the Ka in data set [1], in data set [6] and in [2] were 1.1e+08 M⁻¹, 1.4e+09 M⁻¹ and 9.3e+07 M⁻¹, respectively.
Take poly(etheno-A): the values for the Ka in data set [7], in data set [8] and in data set [9] were 3.8e+09 M⁻¹, 1.7e+09 M⁻¹ and 1.4e+09 M⁻¹, respectively.
